Data set [1] deals with HSV-1 gB730 (HSV-1 glycoprotein B ectodomain) (HSV-1) (UniProt P06437). Briefly: SEC-MALS.
Data set [2] deals with the molecule itself. Briefly: mildly denaturing SDS-PAGE.
The data set “SEC-MALS” concerns the molecule itself. Kind of data set: SEC-MALS. Background: Size exclusion chromatography separates by hydrodynamic size, large species first.

The source of these data is article PMC3534942 (Virology, 2012).

Usually stoichiometry N stands for the number of molecules, sites or subunits per partner or assembly.

“HSV-1 gB730 (HSV-1 glycoprotein B ectodomain) (from UniProt P06437 31-730) (domain or fragment)” had a stoichiometry N in data set [1] of 3.

B1: HCMV gB706-CHis6 (HCMV strain AD169 glycoprotein B ectodomain, residues 25-706, C-terminal His6 tag) (domain or fragment)
chain: DPSSSTSHATSSTHNGSHTSRTTSAQTRSVYSQHVTSSEAVSHRANETIYNTTLKYGDVVGVNTTKYPYRVCSMAQGTDLIRFERNIICTSMKPINEDLDEGIMVVYKRNIVAHTFKVRVYQKVLTFRRSYAYIYTTYLLGSNTEYVAPPMWEIHHINKFAQCYSSYSRVIGGTVFVAYHRDSYENKTMQLIPDDYSNTHSTRYVTVKDQWHSRGSTWLYRETCNLNCMLTITTARSKYPYHFFATSTGDVVYISPFYNGTNRNASYFGENADKFFIFPNYTIVSDFGRPNAAPETHRLVAFLERADSVISWDIQDEKNVTCQLTFWEASERTIRSEAEDSYHFSSAKMTATFLSKKQEVNMSDSALDCVRDEAINKLQQIFNTSYNQTYEKYGNVSVFETSGGLVVFWQGIKQKSLVELERLANRSSLNITHRTRRSTSDNNTTHLSSMESVHNLVYAQLQFTYDTLRGYINRALAQIAEAWCVDQRRTLEVFKELSKINPSAILSAIYNKPIAARFMGDVLGLASCVTINQTSVKVLRDMNVKESPGRCYSRPVVIFNFANSSYVQYGQLGEDNEILLGNHRTEECQLPSLKIFIAGNSAYEYVDYLFKRMIDLSSISTVDSMIALDIDPLENTDFRVLELYSQKELRSSNVFDLEEIMREFNSYKQRVKYVEDKVVDPLPP
For B1, the binding result in data set [2] is listed as “binds”.

B2: HCMV gB706-4M (HCMV strain AD169 glycoprotein B ectodomain, residues 25-706, Y155G/I156H/Y157R/W240A) (domain or fragment)
chain: DPSSSTSHATSSTHNGSHTSRTTSAQTRSVYSQHVTSSEAVSHRANETIYNTTLKYGDVVGVNTTKYPYRVCSMAQGTDLIRFERNIICTSMKPINEDLDEGIMVVYKRNIVAHTFKVRVYQKVLTFRRSYAGHRTTYLLGSNTEYVAPPMWEIHHINKFAQCYSSYSRVIGGTVFVAYHRDSYENKTMQLIPDDYSNTHSTRYVTVKDQWHSRGSTALYRETCNLNCMLTITTARSKYPYHFFATSTGDVVYISPFYNGTNRNASYFGENADKFFIFPNYTIVSDFGRPNAAPETHRLVAFLERADSVISWDIQDEKNVTCQLTFWEASERTIRSEAEDSYHFSSAKMTATFLSKKQEVNMSDSALDCVRDEAINKLQQIFNTSYNQTYEKYGNVSVFETSGGLVVFWQGIKQKSLVELERLANRSSLNITHRTRRSTSDNNTTHLSSMESVHNLVYAQLQFTYDTLRGYINRALAQIAEAWCVDQRRTLEVFKELSKINPSAILSAIYNKPIAARFMGDVLGLASCVTINQTSVKVLRDMNVKESPGRCYSRPVVIFNFANSSYVQYGQLGEDNEILLGNHRTEECQLPSLKIFIAGNSAYEYVDYLFKRMIDLSSISTVDSMIALDIDPLENTDFRVLELYSQKELRSSNVFDLEEIMREFNSYKQRVKYVEDKVVDPLPP
modifications: N-linked glycosylation (mass difference of 22.9 kDa suggested that all 18 predicted N-linked glycosylation sites were glycosylated)
Consider B2, for which the “stoichiometry N” value in the data set “SEC-MALS” came to 3.
